Data on four substances can be found in PMC5449386.

Some results are limits rather than exact numbers.

Assay in all cases: controlled Fab-arm exchange read by hydrophobic interaction chromatography; equimolar parental antibodies, 1 mg/mL each, 75 mM 2-MEA, 5 h at 31 °C; 2-MEA removed, overnight at 4 °C for re-oxidation; percent bispecific product from HIC peak areas
For test [1], the target named is IgG1-CH3(mmG2a)-T370K-K409R parental antibody (7D8-derived) (human | mouse).
Test [2] has as its target mmIgG2b-K409R parental antibody (7D8-derived) (human | mouse).
Test [3] concerns the target IgG1-CH3(mmG2a)-K409R parental antibody with the R411T mutation (7D8-derived) (human | mouse).

Sequence of IgG1-CH3(mmG2a)-T370K-K409R parental antibody (7D8-derived) (human | mouse) (heavy, as listed by the source, chain 1 of 2): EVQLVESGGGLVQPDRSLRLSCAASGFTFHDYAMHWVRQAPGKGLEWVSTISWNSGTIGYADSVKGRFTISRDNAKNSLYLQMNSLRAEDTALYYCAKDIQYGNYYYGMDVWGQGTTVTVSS
Sequence of IgG1-CH3(mmG2a)-T370K-K409R parental antibody (7D8-derived) (human | mouse) (light, as listed by the source, chain 2 of 2): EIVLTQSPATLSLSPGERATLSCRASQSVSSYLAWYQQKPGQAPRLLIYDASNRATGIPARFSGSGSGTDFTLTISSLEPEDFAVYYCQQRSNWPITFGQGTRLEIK
Sequence of IgG1-CH3(mmG2a)-K409R parental antibody with the R411T mutation (7D8-derived) (human | mouse) (heavy, as listed by the source, chain 1 of 2): as the sequence (heavy, as listed by the source, chain 1 of 2) above
Sequence of IgG1-CH3(mmG2a)-K409R parental antibody with the R411T mutation (7D8-derived) (human | mouse) (light, as listed by the source, chain 2 of 2): as the sequence (light, as listed by the source, chain 2 of 2) above
Sequence of mmIgG2b-K409R parental antibody (7D8-derived) (human | mouse) (heavy, as listed by the source, chain 1 of 2): as the sequence (heavy, as listed by the source, chain 1 of 2) above
Sequence of mmIgG2b-K409R parental antibody (7D8-derived) (human | mouse) (light, as listed by the source, chain 2 of 2): as the sequence (light, as listed by the source, chain 2 of 2) above

As to “IgG1-CH3(mmG2a)-F405L parental antibody (2F8-derived)”, in test [1], the cFAE efficiency (percent bispecific product by HIC) is greater than 90%.

For “mmIgG2b-F405L parental antibody (2F8-derived)”, in test [2], the cFAE efficiency (percent bispecific product by HIC) worked out at 80%.

For the substance “IgG1-CH3(mmG2a)-F405L-R411T parental antibody (2F8-derived)”, the cFAE efficiency (percent bispecific product by HIC) in test [3] was 61%; in test [1], greater than 90%.

Regarding “IgG1-CH3(mmG2a)-F405L parental antibody with the T370K mutation (2F8-derived)”, in test [1], the cFAE efficiency (percent bispecific product by HIC) amounted to 76%.
